Source: patent publication US8530235B2, “Medium that supports culture of an oocyte and modulation of granulosa cell apoptosis” (Adelaide Research & Innovation Pty Ltd., priority 2005, dated 2013)

Tests used:
[1] = system: Smad 1-responsive BRE-luciferase reporter; test: Smad 1-responsive BRE-luciferase reporter in mural granulosa cells from large antral follicles; format: cell-based, marmoset monkey, Callithrix jacchus; conditions: 48 h; 0.5 ng/ml TGFβ1, 88-265 ng/ml GDF9, 50 ng/ml BMP7 or 60 mouse oocytes
Protocol: FIGS. 18A and 18B show the activation of the TGF-β signalling pathway by GDF9 and oocytes. MGC from large follicles were transiently transfected with either a Smad 3-responsive CAGA-luciferase reporter construct (A) or a Smad 1-responsive BRE-luciferase reporter construct (B). Cells were subsequently left untreated, treated with 0.5 ng/ml TGFβ1, 88-265 ng/ml GDF9, 50 ng/ml BMP7 or co-cultured with 60 mouse oocytes. Cells were cultured for 48 h after which time luciferase activity was measured from cell extracts. Bars represent means+/− SEM from 3 replicate experiments expressed as a fold change relative to control.
Luciferase reporter constructs responsive to specific phosphorylated Smads were used to detect the activation of mural GC Smad proteins by recombinant GDF9 Mural GCs were collected and processed as described above, except cells were given a final wash in DMEM(MP Biomedicals, Seven Hills, Australia)+2% FCS (Trace Biosciences, Castle Hill, Australia). Following the final wash, cells were transferred to individual wells of a 96-well plate (Falcon) and cultured at 1.6×10^5 cells/ml. After 4 hours of culture, cells were transiently transfected with 50 ng of luciferase reporter construct DNA using Fugene 6 (Roche Diagnostics, Castle Hill, Australia). 18 hours after transfection, medium was aspirated from cells and replaced with DMEM supplemented with 0.1% FCS. Various ligands were added to cells at this point (see below) and the culture period extended for a further 48 hours. Experiments were terminated by removing media from wells and freezing plates at −20° C. […]
Seven adult female marmosets were primed with […] for 6 days, whole ovaries were removed on day 7, follicles manually excised, and GC were then collected from 3 size classes: periantral (PA; 0.42-0.66 mm), small antral (SA; 0.66-1.5 mm) and large antral (LA; >1.5 mm). […] In order to determine the effects of GDF9 on marmoset GC proliferation, we employed a GC bioassay whereby after 24 h ^3H-thymidine incorporation is assessed as an indicator of DNA synthesis and cellular proliferation. […]

mural granulosa cells = test: Mural granulosa cell DNA synthesis, 3H-thymidine incorporation; format: cell-based, marmoset monkey, Callithrix jacchus; conditions: peri antral, small antral and large antral follicles; most notably small follicles, synergism with IGF1
Protocol: Mural GC from large antral follicles were cultured for 24h and thymidine incorporation was stimulated with 175 ng/ml GDF9. […] Bars/points represent means+/−SEM from 3 replicate experiments expressed as a fold change relative to control.
Follicles were manually excised and separated into 3 size classes: periantral (PA; 0.42-0.66 mm), small antral (SA; 0.66-1.5 mm) and large antral (LA; >1.5 mm). GCs from each follicle size were collected and pooled, then washed twice in bicarbonate-buffered tissue culture medium-199 (B-TCM) supplemented with 0.3 mg/ml of polyvinyl alcohol (PVA, Sigma). Depending on the individual experiments, mural GCs (1×10^5 cells/ml), hormones, inhibitors and media were added to wells of 96-well plates (Falcon) to give a final volume of 125 μl. Within each experiment, all treatments were carried out in at least duplicate wells and each experiment was replicated on at least 3 occasions. Cells were cultured in an atmosphere of 37° C., 96% humidity in 5% CO2 in air for 18 hours, followed by a further 6 hour pulse of 15.4 kBq tritiated thymidine (3H-thymidine, ICN) under the same conditions.
Seven adult female marmosets were primed with […] for 6 days, whole ovaries were removed on day 7, follicles manually excised, and GC were then collected from 3 size classes: periantral (PA; 0.42-0.66 mm), small antral (SA; 0.66-1.5 mm) and large antral (LA; >1.5 mm). Four different approaches were utilized to examine GDF9 function in GC. […] To examine the GDF9 signalling pathway, cultured GC from LA follicles were transfected with either a CAGA-luciferase or BRE-luciferase reporter construct and treated with various TGF-β superfamily growth factors or co-cultured with mouse oocytes. In order to determine the effects of GDF9 on marmoset GC proliferation, we employed a GC bioassay whereby after 24 h ^3H-thymidine incorporation is assessed as an indicator of DNA synthesis and cellular proliferation. […] In another experiment, GC were treated with an increasing dose of SB431542, an activin-like kinase (ALK) 4/5/7 inhibitor, in the presence of GDF9+/−IGF1.

B1: GDF-9: Recombinant mouse GDF-9 produced in-house in transfected 293H cells, partially purified by HIC (protein, UniProt Q07105 307-441, looked up)
Growth/differentiation factor …: GQKAIRSEAKGPLLTASFNLSEYFKQFLFPQNECELHDFRLSFSQLKWDNWIVAPHRYNPRYCKGDCPRAVRHRYGSPVHTMVQNIIYEKLDPSVPRPSCVPGKYSPLSVLTIEPDGSIAYKEYEDMIATRCTCR
[1]
  BRE-luciferase activity compared to control levels: not activated
Mural granulosa cells
  GC DNA synthesis: stimulates GC DNA synthesis in all follicle sizes
